The source of these data is paper PMC2921341, “Interaction of Serum- and Glucocorticoid Regulated Kinase 1 (SGK1) with the WW-Domains of Nedd4-2 Is Required for Epithelial Sodium Channel Regulation” (PLoS ONE, 2010).

Assay [1] addresses βENaC PY motif peptide (Homo sapiens) (UniProt P51168). Particulars: cited from earlier work.
Assay [2] addresses βhENaC PY-motif peptide (human). The experiment in a line: SPR; BIAcore 2000; peptide immobilised on Sensor Chip CM5 by amine chemistry; isolated WW-domains injected at 20 µl/min in HBS-EP; KD estimated from steady state equilibrium responses.
Assay [3] addresses SGK PY-motif peptide (human). The description is as above.

Sequence of Nedd4 WW2-4 (P46934 767-925): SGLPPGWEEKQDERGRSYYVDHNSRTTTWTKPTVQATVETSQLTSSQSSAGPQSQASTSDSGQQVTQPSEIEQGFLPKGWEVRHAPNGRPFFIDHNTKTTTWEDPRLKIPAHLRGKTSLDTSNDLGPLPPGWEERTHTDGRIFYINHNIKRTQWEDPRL

Turning to Nedd4 WW2-4 (from UniProt P46934), the Kd (usually a measure of binding affinity in units of concentration) in assay [1] was 65 µM.

Take “Nedd4-2 WW3 (isolated WW-domain, GST removed) (domain or fragment)”: the dissociation constant (Kd) in assay [2] is 11.1 µM; in assay [3], 250 µM.
